Biological target: T1, recombinant BMP4 (rBMP4) (mouse, UniProt P21275 293-408, limits assumed)
T1 sequence (looked up): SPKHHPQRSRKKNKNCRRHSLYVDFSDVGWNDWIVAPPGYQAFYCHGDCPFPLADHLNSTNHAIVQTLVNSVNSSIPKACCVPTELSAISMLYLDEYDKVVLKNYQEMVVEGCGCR
Assay: cell-based or functional assay

B1: mouse recombinant Olfml3-FLAG tagged protein (rOlfml3-FLAG) (other, not shown: small tags and cut ends)
chain: QQHHLVEYMERRLAALEERLAQCQDQSSRHAAELRDFKNKMLPLLEVAEKERETLRTEADSISGRVDRLEREVDYLETQNPALPCVELDEKVTGGPGAKGKGRRNEKYDMVTDCSYTVAQVRSMKILKRFGGSVGLWTKDPLGPAEKIYVLDGTQNDTAFVFPRLRDFTLAMAARKASRIRVPFPWVGTGQLVYGGFLYYARRPPGGPGGGGELENTLQLIKFHLANRTVVDSSVFPAESLIPPYGLTADTYIDLAADEEGLWAVYATRDDDRHLCLAKLDPQTLDTEQQWDTPCPRENAEAAFVICGTLYVVYNTRPASRARIQCSFDASGTLAPERAALSYFPRRYGAHASLRYNPRERQLYAWDDGYQIVYKLEMKKKEEEV
ERK1/2 phosphorylation in HUVECs: 5 fold
